We go through 50 sequences from the supplement of paper PMC9112550, “Optimization of the antimicrobial peptide Bac7 by deep mutational scanning” (BMC Biology, 2022).
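Further: peptides expressed intracellularly from a pBAD plasmid library in pooled LB shake-flask culture, induced with 0.3% L-arabinose, DNA abundance read by NGS, three biological replicates, DESeq2 with apeglm shrinkage.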

The data set has as its system Escherichia coli TOP10. Description: shrunken log2 fold change of peptide-encoding DNA abundance (4.5 h post-induction vs induction); higher = less antimicrobial activity (less host growth inhibition). The note with it: time post-induction: 4.5 h; library: site-saturation at positions 5, 18, 19, 20.
For RRIRDRPPRLPRPRPRPTTKPRP, the “shrunken log2 fold change” value stood at 0.0962.

On to RRIRFRPPRLPRPRPRPMVMPRP, for which the “shrunken log2 fold change” value was -0.696.

As to RRIRIRPPRLPRPRPRPCEHPRP, the “shrunken log2 fold change” value was -0.00165.

With RRIRQRPPRLPRPRPRPHSGPRP, the “shrunken log2 fold change” value is -0.01.

RRIRGRPPRLPRPRPRPDNDPRP: the “shrunken log2 fold change” value is 0.0238.

On to RRIRMRPPRLPRPRPRPGFNPRP, for which the “shrunken log2 fold change” value was -0.106.

In the case of RRIRPRPPRLPRPRPRPLWDPRP, the “shrunken log2 fold change” value was found to be 0.00439.

On to RRIRCRPPRLPRPRPRPNFNPRP, for which the “shrunken log2 fold change” value is -0.372.

As to RRIRCRPPRLPRPRPRPFRKPRP, the “shrunken log2 fold change” value is -0.0377.

Take RRIRSRPPRLPRPRPRPITHPRP: the “shrunken log2 fold change” value is -0.419.

Turning to RRIRTRPPRLPRPRPRPQQQPRP, the “shrunken log2 fold change” value was -0.0474.

Consider RRIRERPPRLPRPRPRPACPPRP, for which the “shrunken log2 fold change” value was -0.0623.

Consider RRIRARPPRLPRPRPRPESWPRP, for which the “shrunken log2 fold change” value amounted to 1.49.

Regarding RRIRLRPPRLPRPRPRPVFIPRP, the “shrunken log2 fold change” value is -0.454.

Regarding RRIRMRPPRLPRPRPRPNFIPRP, the “shrunken log2 fold change” value was -0.371.

Take RRIRFRPPRLPRPRPRPELAPRP: the “shrunken log2 fold change” value came to 0.0952.

Turning to RRIRTRPPRLPRPRPRPDNSPRP, the “shrunken log2 fold change” value was -0.0647.

On to RRIRGRPPRLPRPRPRPEDHPRP, for which the “shrunken log2 fold change” value came to 0.536.

For RRIRPRPPRLPRPRPRPTIQPRP, the “shrunken log2 fold change” value is -0.101.

On to RRIRQRPPRLPRPRPRPEAKPRP, for which the “shrunken log2 fold change” value was 0.0428.

On to RRIRNRPPRLPRPRPRPFRSPRP, for which the “shrunken log2 fold change” value worked out at 0.033.

As for RRIRFRPPRLPRPRPRPCDEPRP, the “shrunken log2 fold change” value amounted to 0.112.

Consider RRIRDRPPRLPRPRPRPMRWPRP, for which the “shrunken log2 fold change” value stood at 0.274.

In the case of RRIRYRPPRLPRPRPRPTENPRP, the “shrunken log2 fold change” value is -0.239.

In the case of RRIRDRPPRLPRPRPRPCQFPRP, the “shrunken log2 fold change” value was found to be 0.0215.

As for RRIRLRPPRLPRPRPRPVFRPRP, the “shrunken log2 fold change” value was 0.0694.

In the case of RRIRTRPPRLPRPRPRPIPHPRP, the “shrunken log2 fold change” value was -0.307.

For RRIRHRPPRLPRPRPRPAGPPRP, the “shrunken log2 fold change” value turned out to be 0.056.

Take RRIRVRPPRLPRPRPRPFYNPRP: the “shrunken log2 fold change” value was -0.565.

Consider RRIRIRPPRLPRPRPRPLTQPRP, for which the “shrunken log2 fold change” value is -0.648.

As for RRIRRRPPRLPRPRPRPNKSPRP, the “shrunken log2 fold change” value was -0.0615.

For the sequence RRIRLRPPRLPRPRPRPQGQPRP, the “shrunken log2 fold change” value is -0.0201.

On to RRIRPRPPRLPRPRPRPLTQPRP, for which the “shrunken log2 fold change” value stood at 0.0664.

With RRIRERPPRLPRPRPRPQAYPRP, the “shrunken log2 fold change” value was -0.131.

Consider RRIRARPPRLPRPRPRPRRAPRP, for which the “shrunken log2 fold change” value was determined as 0.831.

With RRIRVRPPRLPRPRPRPWGWPRP, the “shrunken log2 fold change” value turned out to be 0.331.

With RRIRKRPPRLPRPRPRPNWYPRP, the “shrunken log2 fold change” value is -0.185.

Consider RRIRFRPPRLPRPRPRPHHMPRP, for which the “shrunken log2 fold change” value turned out to be 0.335.

With RRIRVRPPRLPRPRPRPLLCPRP, the “shrunken log2 fold change” value was -0.642.

Consider RRIRIRPPRLPRPRPRPFIGPRP, for which the “shrunken log2 fold change” value was -0.227.

For RRIRSRPPRLPRPRPRPLIIPRP, the “shrunken log2 fold change” value is -0.678.

With RRIRFRPPRLPRPRPRPWYHPRP, the “shrunken log2 fold change” value was -0.14.

Take RRIRYRPPRLPRPRPRPDQNPRP: the “shrunken log2 fold change” value was -0.269.

In the case of RRIRFRPPRLPRPRPRPNWFPRP, the “shrunken log2 fold change” value came out at 0.0383.

Consider RRIRPRPPRLPRPRPRPNMTPRP, for which the “shrunken log2 fold change” value is -0.13.

Take RRIRNRPPRLPRPRPRPMDQPRP: the “shrunken log2 fold change” value is -0.01.

Consider RRIRERPPRLPRPRPRPIHSPRP, for which the “shrunken log2 fold change” value is -1.52.

Turning to RRIRVRPPRLPRPRPRPCFPPRP, the “shrunken log2 fold change” value stood at 0.228.

For RRIRVRPPRLPRPRPRPKYEPRP, the “shrunken log2 fold change” value was 0.0383.

As to RRIRDRPPRLPRPRPRPPYLPRP, the “shrunken log2 fold change” value was -0.0541.
